Data as given in US20150065381A1.
Where “and” joins values, the source holds several entries; their conditions need not be identical. Identical values can stand only once.

Columns and labels:
[1] = biological target: HIV-1 envelope of gp160 clone B-Acute-010.c08 (HIV-1); test: capture ELISA, plate 1, mAb 0.8 ug/ml
[2] = biological target: HIV-1 envelope of gp160 clone AG-010.c14 (HIV-1); test: capture ELISA, plate 1, mAb 0.8 ug/ml
[3] = biological target: HIV-1 envelope of gp160 clone B-Acute-008.c11 (HIV-1); test: capture ELISA, plate 1, mAb 0.8 ug/ml
[4] = biological target: HIV-1 envelope of gp160 clone AG-010.c11 (HIV-1); test: capture ELISA, plate 1, mAb 0.8 ug/ml
[5] = biological target: HIV-1 JRFL envelope (HIV-1); test: capture ELISA, plate 1, mAb 0.8 ug/ml
[6] = biological target: HIV-1 envelope of gp160 clone B-Chronic-014.c02 (HIV-1); test: capture ELISA, plate 1, mAb 0.8 ug/ml
[7] = biological target: HIV-1 envelope clone G-011.c05 (multiclade gp160 clone panel) (HIV-1); test: capture ELISA, plate 1, mAb 0.8 ug/ml
[8] = biological target: HIV-1 JRCSF envelope (HIV-1) (UniProt P20871); test: capture ELISA, plate 1, mAb 0.8 ug/ml
[9] = biological target: HIV-1 envelope clone G-011.c02 (multiclade gp160 clone panel) (HIV-1); test: capture ELISA, plate 1, mAb 0.8 ug/ml
[10] = biological target: HIV-1 envelope of gp160 clone B-Acute-009-c08 (HIV-1); test: capture ELISA, plate 1, mAb 0.8 ug/ml
[11] = biological target: HIV-1 16055 envelope (HIV-1); test: capture ELISA, plate 1, mAb 0.8 ug/ml
[12] = biological target: HIV-1 envelope of gp160 clone B-Acute-010.c09 (HIV-1); test: capture ELISA, plate 1, mAb 0.8 ug/ml
[13] = biological target: aMLV envelope (from lysed pseudovirus); test: antigen capture ELISA, mAb 2.5 ug/ml, plate 1
[14] = biological target: BG505 envelope (gp120 monomer released from lysed pseudovirus) (HIV-1); test: antigen capture ELISA, mAb 2.5 ug/ml, plate 1
[15] = biological target: HIV-1 envelope of gp160 clone B-Acute-010.c08 (HIV-1); test: cell-based or functional assay
[16] = biological target: HIV-1 envelope of gp160 clone AG-010.c14 (HIV-1); test: cell-based or functional assay
[17] = biological target: HIV-1 envelope of gp160 clone B-Acute-008.c11 (HIV-1); test: cell-based or functional assay
[18] = biological target: HIV-1 envelope of gp160 clone AG-010.c11 (HIV-1); test: cell-based or functional assay
[19] = biological target: HIV-1 envelope of gp160 clone B-Chronic-014.c02 (HIV-1); test: cell-based or functional assay
[20] = biological target: HIV-1 envelope clone G-011.c05 (multiclade gp160 clone panel) (HIV-1); test: cell-based or functional assay
[21] = biological target: HIV-1 JRCSF envelope (HIV-1) (UniProt P20871); test: cell-based or functional assay
[22] = biological target: HIV-1 envelope clone G-011.c02 (multiclade gp160 clone panel) (HIV-1); test: cell-based or functional assay
[23] = biological target: HIV-1 envelope of gp160 clone B-Acute-009-c08 (HIV-1); test: cell-based or functional assay
[24] = biological target: HIV-1 envelope of gp160 clone B-Acute-010.c09 (HIV-1); test: cell-based or functional assay
[25] = biological target: HIV-1 envelope of gp160 clone B-Acute-010.c08 (HIV-1); test: capture ELISA, plate 1, mAb 7.5 ug/ml
[26] = biological target: HIV-1 envelope of gp160 clone AG-010.c14 (HIV-1); test: capture ELISA, plate 1, mAb 7.5 ug/ml
[27] = biological target: HIV-1 envelope of gp160 clone B-Acute-008.c11 (HIV-1); test: capture ELISA, plate 1, mAb 7.5 ug/ml
[28] = biological target: HIV-1 envelope of gp160 clone B-Chronic-014.c02 (HIV-1); test: capture ELISA, plate 1, mAb 7.5 ug/ml
[29] = biological target: HIV-1 envelope clone G-011.c05 (multiclade gp160 clone panel) (HIV-1); test: capture ELISA, plate 1, mAb 7.5 ug/ml
[30] = biological target: HIV-1 envelope clone G-011.c02 (multiclade gp160 clone panel) (HIV-1); test: capture ELISA, plate 1, mAb 7.5 ug/ml
[31] = biological target: HIV-1 16055 envelope (HIV-1); test: capture ELISA, plate 1, mAb 7.5 ug/ml
[32] = biological target: HIV-1 envelope of gp160 clone B-Acute-010.c09 (HIV-1); test: capture ELISA, plate 1, mAb 7.5 ug/ml
[33] = biological target: HIV-1 envelope clone F1-002.c11 (multiclade gp160 clone panel) (HIV-1); test: capture ELISA, plate 1, mAb 0.8 ug/ml
[34] = biological target: HIV-1 envelope clone BF-002.c08 (multiclade gp160 clone panel) (HIV-1); test: capture ELISA, plate 1, mAb 0.8 ug/ml
[35] = biological target: HIV-1 envelope clone BF-002.c05 (multiclade gp160 clone panel) (HIV-1); test: capture ELISA, plate 1, mAb 0.8 ug/ml
[36] = biological target: HIV-1 envelope clone F1-002.c16 (multiclade gp160 clone panel) (HIV-1); test: capture ELISA, plate 1, mAb 0.8 ug/ml
[37] = biological target: HIV-1 envelope clone F1-002.c11 (multiclade gp160 clone panel) (HIV-1); test: capture ELISA, plate 1, mAb 7.5 ug/ml
[38] = biological target: HIV-1 envelope clone BF-002.c08 (multiclade gp160 clone panel) (HIV-1); test: capture ELISA, plate 1, mAb 7.5 ug/ml
[39] = biological target: HIV-1 envelope clone F1-002.c16 (multiclade gp160 clone panel) (HIV-1); test: capture ELISA, plate 1, mAb 7.5 ug/ml

Row | Substance | ELISA OD [1] | ELISA OD [2] | ELISA OD [3] | ELISA OD [4] | ELISA OD [6] | ELISA OD [7] | ELISA OD [8] | ELISA OD [9] | ELISA OD [10] | ELISA OD [12] | ELISA OD [13] | ELISA OD [14] | ELISA OD [25] | ELISA OD [26] | ELISA OD [27] | ELISA OD [28] | ELISA OD [29] | ELISA OD [30] | ELISA OD [31] | ELISA OD [32] | further results
1 | PG9 (antibody) | 0.161 OD | 0.67 OD | 0.168 OD | 0.506 OD | 1.22 OD | 0.172 OD | 0.24 OD and 0.235 OD | 0.064 OD | 0.076 OD | 0.08 OD | 0.068 OD and 0.067 OD | 0.346 OD | 0.547 OD | 1.22 OD | 0.363 OD | 2.35 OD | 0.37 OD | 0.108 OD | 0.519 OD and 0.367 OD | 0.199 OD | ELISA OD [5]: 0.064 OD and 0.096 OD; ELISA OD [11]: 0.313 OD and 0.242 OD; PG9 IC50 [15]: 0.147 µg/mL; PG9 IC50 [16]: 0.035 µg/mL; PG9 IC50 [17]: 0.396 µg/mL; PG9 IC50 [18]: 0.104 µg/mL; PG9 IC50 [19]: 0.039 µg/mL; PG9 IC50 [20]: 0.098 µg/mL; PG9 IC50 [21]: 0.002 µg/mL; PG9 IC50 [22]: > 50 µg/mL; PG9 IC50 [23]: 0.288 µg/mL; PG9 IC50 [24]: 22.2 µg/mL
2 | PG16 (antibody) | 0.132 OD | 0.491 OD | 0.164 OD | 0.177 OD | 0.365 OD | 0.099 OD | 0.169 OD and 0.154 OD | 0.057 OD | 0.058 OD | 0.073 OD | 0.063 OD and 0.072 OD | 0.103 OD | 0.272 OD | 0.817 OD | 0.205 OD | 0.476 OD | 0.158 OD | 0.069 OD | 0.215 OD and 0.16 OD | 0.282 OD | ELISA OD [33]: 0.146 OD; ELISA OD [34]: 0.134 OD; ELISA OD [35]: 0.518 OD; ELISA OD [36]: 0.341 OD; PG16 [15]: 0.015 µg/mL; PG16 [16]: 0.007 µg/mL; PG16 [17]: 5.3 µg/mL; PG16 [18]: 0.031 µg/mL; PG16 [19]: 0.037 µg/mL; PG16 [20]: 0.024 µg/mL; PG16 [21]: 0 µg/mL; PG16 [22]: > 50 µg/mL; PG16 [23]: 0.202 µg/mL; PG16 [24]: 1.21 µg/mL; ELISA OD [37]: 0.168 OD; ELISA OD [38]: 0.168 OD; ELISA OD [39]: 0.244 OD
3 | PGT145 (antibody) | 0.114 OD | 0.054 OD | 0.078 OD | 0.054 OD | 0.083 OD | 0.08 OD | 0.058 OD and 0.056 OD | 0.062 OD | 0.062 OD | 0.06 OD | 0.062 OD and 0.068 OD | 0.077 OD | 0.179 OD | 0.07 OD | 0.146 OD | 0.106 OD | 0.133 OD | 0.129 OD | 0.085 OD and 0.077 OD | 0.084 OD | ELISA OD [33]: 0.067 OD; ELISA OD [34]: 0.054 OD; ELISA OD [35]: 0.169 OD; ELISA OD [5]: 0.057 OD and 0.051 OD; ELISA OD [36]: 0.269 OD; ELISA OD [11]: 0.065 OD and 0.059 OD; PGT145 IC50 [15]: 0.032 µg/mL; PGT145 IC50 [16]: > 50 µg/mL; PGT145 IC50 [17]: 8.2 µg/mL; PGT145 IC50 [18]: 8.27 µg/mL; PGT145 IC50 [19]: 2.22 µg/mL; PGT145 IC50 [20]: 0.115 µg/mL; PGT145 IC50 [21]: 0.003 µg/mL; PGT145 IC50 [22]: 1.8 µg/mL; PGT145 IC50 [23]: 0.007 µg/mL; PGT145 IC50 [24]: 0.294 µg/mL
4 | PGT151 (antibody) | 0.124 OD | 0.102 OD | 0.174 OD | 0.057 OD | 0.148 OD | 0.071 OD | 0.058 OD and 0.056 OD | 0.061 OD | 0.066 OD | 0.055 OD | 0.068 OD and 0.053 OD | 0.063 OD | 0.206 OD | 0.148 OD | 0.256 OD | 0.525 OD | 0.089 OD | 0.121 OD | 0.08 OD and 0.078 OD | 0.081 OD | ELISA OD [33]: 0.065 OD; ELISA OD [34]: 0.05 OD; ELISA OD [35]: 0.117 OD; ELISA OD [5]: 0.066 OD and 0.05 OD; ELISA OD [36]: 0.068 OD; ELISA OD [11]: 0.056 OD and 0.061 OD; ELISA OD [37]: 0.087 OD; ELISA OD [38]: 0.087 OD; ELISA OD [39]: 0.105 OD
5 | PGV04 (antibody) | 0.631 OD | 0.15 OD | 0.053 OD | 0.101 OD | 2.9 OD | 0.136 OD | 0.896 OD and 1.04 OD | 0.282 OD | 0.079 OD | 0.902 OD | 0.056 OD and 0.073 OD | 1.04 OD | 2.65 OD | 0.293 OD | 0.07 OD | 4 OD | 0.451 OD | 0.865 OD |  | 2.87 OD | ELISA OD [33]: 0.079 OD; ELISA OD [34]: 1.27 OD; ELISA OD [35]: 1.91 OD; ELISA OD [36]: 0.118 OD; ELISA OD [37]: 0.28 OD; ELISA OD [38]: 2.72 OD; ELISA OD [39]: 0.54 OD
